Biological target: T1, MLO-Y4 cell surface proteins (Mus musculus, UniProt O88689)
T1 construct: endogenous in cells; host or cells: MLO-Y4
T1 sequence (O88689 30-947): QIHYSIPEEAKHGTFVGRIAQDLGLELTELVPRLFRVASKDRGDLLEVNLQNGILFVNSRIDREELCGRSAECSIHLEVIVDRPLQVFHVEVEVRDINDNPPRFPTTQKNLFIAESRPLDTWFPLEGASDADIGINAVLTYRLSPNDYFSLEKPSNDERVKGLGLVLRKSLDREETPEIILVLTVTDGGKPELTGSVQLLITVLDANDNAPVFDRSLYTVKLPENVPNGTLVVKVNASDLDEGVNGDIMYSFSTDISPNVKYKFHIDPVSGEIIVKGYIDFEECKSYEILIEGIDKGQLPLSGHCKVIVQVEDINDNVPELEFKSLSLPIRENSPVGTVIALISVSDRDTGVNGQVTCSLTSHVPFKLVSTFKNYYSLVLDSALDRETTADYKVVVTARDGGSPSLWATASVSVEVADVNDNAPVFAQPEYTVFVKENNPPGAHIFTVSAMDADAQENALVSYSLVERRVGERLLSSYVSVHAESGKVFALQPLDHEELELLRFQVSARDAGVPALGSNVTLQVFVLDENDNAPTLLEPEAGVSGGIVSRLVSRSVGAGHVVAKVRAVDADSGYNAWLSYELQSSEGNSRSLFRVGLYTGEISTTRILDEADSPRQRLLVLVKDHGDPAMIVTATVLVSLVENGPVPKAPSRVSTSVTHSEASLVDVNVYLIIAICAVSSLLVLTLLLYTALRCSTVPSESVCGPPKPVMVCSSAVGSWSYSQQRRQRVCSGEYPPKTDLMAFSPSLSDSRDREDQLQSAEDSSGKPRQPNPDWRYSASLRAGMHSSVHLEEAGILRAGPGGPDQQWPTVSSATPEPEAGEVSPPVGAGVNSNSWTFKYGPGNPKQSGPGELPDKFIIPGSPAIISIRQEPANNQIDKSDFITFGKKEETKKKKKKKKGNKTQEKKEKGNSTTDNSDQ
Assay: Crosslinking/co-immunoprecipitation/mass spectrometry (TMT quantitative proteomics) to identify irisin receptors
Assay type: binding
Settings: TMT ratio, Pcdha4 Protocadherin alpha-4
How it was run: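 Mouse MLO-Y4 cells were switched to serum-free FreeStyle medium for 4 h, chilled, then exposed to 10 nM His-tagged irisin (or adipsin as control) for 20 min. Cells were crosslinked with 1.5 mM DTSSP (30 min, ice), and bound proteins were pulled down on Ni-NTA and eluted with 250 mM imidazole. Eluates were separated by SDS-PAGE, trypsin-digested in gel, TMT 6-plex labelled and quantified by MS3-based LC-MS/MS on an Orbitrap Fusion Lumos.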

B1: irisin: secreted cleaved form of FNDC5; recombinant human/mouse irisin with C-terminal his tag produced in HEK293 cells (protein)
chain: DSPSAPVNVTVRHLKANSAVVSWDVLEDEVVIGFAISQQKKDVRMLRFIQEVNTTTRSCALWDLEEDTEYIVHVQAISIQGQSPASEPVLFKTPREAEKMASKNKDEVTMKE
modifications: left off: small tags and cut ends
notes: secreted cleaved form of FNDC5; recombinant human/mouse irisin with C-terminal his tag produced in HEK293 cells
- irsin/adipsin: 4.39
